The star is where a group is joined. FITC = O=C1OC2(c3ccc(O)cc3Oc3cc(O)ccc32)c2ccc(NC(=S)*)cc21
B1: NR peptide, FITC-TEKANRLLLTGKTEQ-NH2 (canonical DnaK peptide substrate NRLLLTG with flanking extensions) (peptide)
peptide: {FITC}-TEKANRLLLTGKTEQ-NH2
notes: N-terminal extension TEKA, canonical DnaK substrate heptapeptide NRLLLTG, C-terminal extension KTEQ; source: synthetic peptide (Peptide 2.0, Inc.)
B2: KL peptide, FITC-TEKAKLVIKLLALGKTEQ-NH2 (KL decapeptide of ARF48 with flanking extensions) (peptide)
peptide: {FITC}-TEKAKLVIKLLALGKTEQ-NH2
notes: ARF48 is a 48-residue product of the +1 alternate reading frame of Arabidopsis thaliana cDNA At3G62370, not a natural protein), C-terminal extension KTEQ; The core decapeptide is not part of a natural protein: it is an alternate-reading-frame translation product; also called synthetic KL decapeptide; source: synthetic peptide (Peptide 2.0, Inc.)

Target: T1, 6His-DnaK (E. coli molecular chaperone DnaK) (E. coli, UniProt P0A6Y8 1-638)
T1 construct: No tag removal is described; also called purified E. coli DnaK protein; source: E. coli, ASKA expression clone, purified (Ni-NTA agarose)
Experiment: MST; 20 nM fluorescein-labelled peptide with varying concentrations of DnaK; MST buffer (50 mM Tris pH 7.4, 150 mM NaCl, 10 mM MgCl2, 0.05% Tween-20, 0.05% bovine serum albumin); 1 h at 20°C; Monolith NT.115
Conditions: both partners purified

T1 sequence (P0A6Y8 whole entry): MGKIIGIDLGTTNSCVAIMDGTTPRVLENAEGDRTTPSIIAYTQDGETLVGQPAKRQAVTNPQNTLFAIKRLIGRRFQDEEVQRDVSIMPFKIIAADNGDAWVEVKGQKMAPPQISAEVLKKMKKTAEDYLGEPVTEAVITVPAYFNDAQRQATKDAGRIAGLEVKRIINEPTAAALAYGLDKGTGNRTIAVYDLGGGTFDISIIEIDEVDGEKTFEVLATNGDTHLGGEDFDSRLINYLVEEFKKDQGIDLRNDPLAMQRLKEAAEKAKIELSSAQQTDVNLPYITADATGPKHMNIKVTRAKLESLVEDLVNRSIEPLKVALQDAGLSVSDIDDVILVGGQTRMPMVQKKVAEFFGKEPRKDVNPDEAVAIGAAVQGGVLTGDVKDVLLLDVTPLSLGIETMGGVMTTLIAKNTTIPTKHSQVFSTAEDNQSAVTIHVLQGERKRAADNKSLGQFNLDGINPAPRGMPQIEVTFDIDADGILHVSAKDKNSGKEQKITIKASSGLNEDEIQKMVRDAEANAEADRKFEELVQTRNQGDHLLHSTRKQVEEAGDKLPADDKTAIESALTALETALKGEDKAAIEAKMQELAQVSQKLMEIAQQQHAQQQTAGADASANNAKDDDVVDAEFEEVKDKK

Binder | binding result
B1 | binds
B2 | binds

Source: publication doi:10.1101/2021.10.06.463398, “Disruption of nucleoid expanded conformation by toxic aberrant proteins synthesized in Escherichia coli” (bioRxiv, 2021)
